For the data set, the system named is MS2 coat protein. The data set is described as follows: apparent KD of MS2 coat protein; higher = weaker reporter binding. As to conditions: Eterna round: R107. A digest of the protocol: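 Designed RNA switches were transcribed on-chip from Illumina sequencing clusters. SNAP-549-labelled MS2 coat protein was titrated onto them in twofold steps from 0.7 or 1.5 nM to 3 µM in 100 mM Tris-HCl pH 7.5, 80 mM KCl, 4 mM MgCl2, either without or with constant ligand. Apparent KD reflects the per-design median of normalised cluster binding-curve fits.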

The mark [1] stands for this setting: input ligand: theophylline 20 uM.
[2] abbreviates: input ligand: theophylline 2 mM.
[3] abbreviates: input ligand: tryptophan 2.4 mM.

For the sequence “AUGUACAUGACGGCCGCCACUACACUGAAAGUGGUCCAGAACAUGAGGAUCACCCAUGUAUCAAGUAGGACCGGGUCAUGUACAU [Tryp B Ex t5]”, the “apparent KD of MS2 coat protein” value reads like this: (input ligand: arginine 13.2 mM) 0.178 µM; under setting [1], 0.425 µM; under setting [2], 0.697 µM.
In the same order, the values of “AUUAAGGAUAUGUAGACGGCGGAGAAGAGACGAGGACCGGUACGGCCGCCACUCGUGUUAGUUAACAUGAGGAUCACCCAUGUAA [#07 Tryptophan A Same State]” are 0.0513 µM, 0.0561 µM and 0.0696 µM.
Take “AUUCAUGGAAACAUGACAUACAUUACCGGUCGAGGACCGGUACGGCCGCCACUCGGUUGGUGGCACAUGAGGAUCACCCAUGUUA [SS Tryp A #11]”: the “apparent KD of MS2 coat protein” value (input ligand: arginine 13.2 mM) was 0.0252 µM, the “apparent KD of MS2 coat protein” value under setting [1] is 0.0442 µM and the “apparent KD of MS2 coat protein” value under setting [2] worked out at 0.03 µM.
As to “AUUCAUGGAAACAUGACAUAGGGAUCACUCCGAGGACCGGUACGGCCGCCACUCGCGAGGAGGCACAUGAGGAUCACCCAUGUUA [SS Tryp A #4]”, the “apparent KD of MS2 coat protein” value by setting is: (input ligand: arginine 13.2 mM) 0.027 µM; under setting [1], 0.0738 µM; under setting [2], 0.0921 µM.
With “AUUGACGUUGCGGCCGCCACUAGGCGUUCCCGGACAUGAGGAUCACCCAUGUGCUAGAGUGUAACUAGGACCGGGUAACCUCAGC [Verevean]”, the “apparent KD of MS2 coat protein” value by setting is: (input ligand: arginine 13.2 mM) 0.124 µM; (input ligand: none) 0.103 µM; under setting [1], 0.29 µM; under setting [2], 0.26 µM; under setting [3], 0.176 µM.
For the sequence “AUUGUGAAGUCGGCCGCCACUGCAUAGUUUAACCACAUGUAACAUGAGGAUCACCCAUGUAAUGACAGGACCGGGACAAUAGUAA [JR_SSTryptoB_Sub023]”, the “apparent KD of MS2 coat protein” value by setting is: (input ligand: arginine 13.2 mM) 0.0222 µM; under setting [1], 0.0419 µM; under setting [2], 0.0299 µM.
The matching figures for “AUUGUGAAGUCGGCCGCCACUGCAUAGUUUAACCUCUUUUAACAUGAGGAUCACCCAUGUAAUGACAGGACCGGGACAAUAGUAA [JR_SSTryptoB_Sub022]”: 0.0543 µM, 0.0923 µM and 0.0797 µM.
On to “AUUUUUCUAUCAGAUACCAGACAACUCCAAACAUGAGGAUCACCCAUGUAUUGGGUGUUCGUCCCUUGGCAGCUGUUAAUGUUAA [JR_SSTheophyB_Sub003]”, for which the “apparent KD of MS2 coat protein” value was found to be 0.0246 µM (input ligand: arginine 13.2 mM), 0.0181 µM under setting [1] and 0.0169 µM under setting [3].
With “CAAAAUAUCGGAAGGAGCGCGGGUAGGCGGGUUGGAUCACAUGAGGAUCACCCAUGUAAAUCGCAGGUAGGUCGCCGAUAACGCG [XArg-B27]”, the “apparent KD of MS2 coat protein” value runs as follows: (input ligand: arginine 13.2 mM) 0.0529 µM; (input ligand: none) 0.0199 µM; under setting [1], 0.0604 µM; under setting [2], 0.0379 µM; under setting [3], 0.0301 µM.
Regarding “CAAAGUUCGUCUCUGGUCCUCUAAUCGGCUCGAGGACCGGUACGGCCGCCACUCGCCCGACAUGAGGAUCACCCAUGUCUGUAAA [Dilaanis]”, the “apparent KD of MS2 coat protein” value runs as follows: (input ligand: arginine 13.2 mM) 0.0155 µM; under setting [1], 0.023 µM; under setting [2], 0.0168 µM.
“CAAGAAGUAACUGAUACCAGUGUACUGACAUGAGGAUCACCCAUGUUGGGUUUUGUUGUACACCCUUGGCAGCAGAAUCUUCUUG [AstrosExyTheB#22]”: the “apparent KD of MS2 coat protein” value is, setting by setting: (input ligand: arginine 13.2 mM) 0.0469 µM; under setting [1], 0.0748 µM; under setting [3], 0.0581 µM.
Turning to “CACAUGAGGAUCACCCAUGUCUGAACUGAAGGAGCGCUAAAUAAGGCAGGUAGGUCGCGGAAUCCCGGGUGCAUAUGCACCCGGG [9.aB]”, the “apparent KD of MS2 coat protein” value runs as follows: (input ligand: arginine 13.2 mM) 0.0146 µM; (input ligand: none) 0.032 µM; under setting [1], 0.0308 µM; under setting [2], 0.0263 µM; under setting [3], 0.0209 µM.
Take “CACGAAAGAUCGGCCGCCACUAGCCUGUGUGUACUAGCACAUGAGGAUCACCCAUGUUCUUGCGUUAGGACCGGGAUUGAGCGUG [#05 Exclusion Tryptophan B]”: the “apparent KD of MS2 coat protein” value was 0.0171 µM (input ligand: arginine 13.2 mM); 0.0268 µM (input ligand: none); 0.0279 µM under setting [1]; 0.0339 µM under setting [2]; 0.0255 µM under setting [3].
The matching figures for “CAGAACAUGAGGAUCACCCAUGUUAGGGAUACCAGCUCAGACAUGGGCCCUUGGCAGCUCUAUGGCUGACGAAAGUCAGCAUCUG [#16 SameState-TheophyllineA]”: 0.0705 µM, 0.0417 µM, 0.874 µM, 0.00301 µM and 0.0425 µM.
Take “CAGGCUAGGACGGCCGCCACUGUGGCUACGGUACAUGAGGAUCACCCAUGUUUGUGGUUGAUCUACAGGACCGGGUCCUGACACG [Letisoonri]”: the “apparent KD of MS2 coat protein” value by setting is: (input ligand: arginine 13.2 mM) 0.0222 µM; under setting [1], 0.134 µM; under setting [2], 0.278 µM.
With “CAGUCAGUCAGUCAAUGAGUGAGGCAUGAAGGAGCGUGGGAAACCACAGGUAGGUCGCAUGCGAAACAUGAGGAUCACCCAUGUU [SSArg A #3]”, the “apparent KD of MS2 coat protein” value came out at 0.0294 µM (input ligand: arginine 13.2 mM); 0.0479 µM (input ligand: none); 0.0425 µM under setting [1]; 0.0519 µM under setting [2]; 0.0263 µM under setting [3].
For “CAUAUAUAUUGAAGGAGCGUCGAAAAUGGGUAAACAUGAGGAUCACCCAUGUAAAGGGAACGACAGGUAGGUCGCAAUAUAUAUG [AstromonsSSArgB#4]”, the “apparent KD of MS2 coat protein” value came out at 0.115 µM (input ligand: arginine 13.2 mM); 0.181 µM (input ligand: none); 0.199 µM under setting [1]; 0.177 µM under setting [2]; 0.146 µM under setting [3].
“CAUGUUGUUGAAGAUACCAGAUUCUGAACGUUCACAUGAGGAUCACCCAUGUAAGUCCGAGUCCCUUGGCAGCUUAUACAGGUGG [Reatlala]”: the “apparent KD of MS2 coat protein” value reads like this: (input ligand: arginine 13.2 mM) 0.0439 µM; under setting [1], 0.0508 µM; under setting [3], 0.0477 µM.
